Data from PMC11440607 (Journal of Medicinal Chemistry, 2024).

Assays:
Assay type in all cases: physicochemical
[1] = Amyloid aggregation propensity by thioflavin-T (ThT) fluorescence
From the text: (§1) The pH-sensitive, reversible amyloid aggregation of GLP-1 and related gastrointestinal hormones is an inherent and functionally critical property. They are stored as condensed amyloids at low pH before being released as monomeric, folded hormones at neutral pH. At the same time, the exact evolutionary origin[45] of Ex4 with its functional role as a salivary toxin in lizards remains unknown.[45],[46] The difference in secretion pathways is notable: GLP-1 is secreted into the bloodstream, while Ex4 is secreted into the alimentary canal. […] In terms of structure, the polyproline tail of the Ex4 Tc fold effectively shields the −^21LFIEWL^26− aggregation-prone region[40] (APR) of the facing α-helix, while the similar −^21EFIAWL^26− helical segment of GLP-1 remains unshielded. We therefore investigated the short- and long-term aggregation behavior of GLP-1, Ex4, and related Tc5b-modified variants using an amyloid-specific thioflavin-T fluorescence assay, CD spectroscopy, and atomic force microscopy (AFM) at 37 °C (Figure 5).
The exact peptide content percentage of the lyophilized peptides was determined by using a Nanodrop Lite UV–vis spectrophotometer at 280 nm. […] The exact concentration was determined by UV spectrometry using a Jasco V-660 spectrophotometer (Tokyo, Japan) at 412 nm with an extinction coefficient of 31.600 M^–1 cm^–1. […] A SpectraMax iD3 microplate reader (Molecular Devices, Sunnyvale, CA, USA) was used to control the experimental conditions (37 °C, orbital shaking at medium intensity) and to collect fluorescence data over 3 days. […] The emitted fluorescence was measured from the bottom of the microplate with medium photomultiplier tube sensitivity (PMT) settings and an integration time of 400 ms. […] The average fluorescence intensity of the peptide-free ThT sample was used as a background and subtracted from the average fluorescence intensity of the peptide-containing samples at each measurement point. The mean and standard deviation of ThT fluorescence intensities were plotted as a function of time using Origin software version 2022b and Excel software version 2020.

[2] = Long-term aggregation monitored by CD spectroscopy; details: pH 7.4, 1 mg mL-1, 150 mM NaCl, 37 °C, 500 rpm, two weeks
From the text: as §1, with “(APR) of the facing α-helix, while the similar −^21EFIAWL^26− helical segment of GLP-1 remains unshielded.” left out
Circular dichroism (CD) experiments were performed using JASCO J-810 and J-1500 spectropolarimeters. […] Melting curves were recorded in the temperature range of 5–85 °C in 5 °C increments. […] Exact concentrations were determined by using a Nanodrop Lite UV–vis spectrophotometer at 280 nm. To determine the folded fraction (F%), the temperature-dependent spectrum collection of 65 CD curves was analyzed using Convex Constraint Analysis Plus software.[59] […]

[3] = Atomic force microscopy of aggregation samples
Description: Ten μL aliquots were taken from the ThT and CD measurement samples at the end point of the experiments, after 3 days and 2 weeks of agitation, respectively. These aliquots were then spread on freshly cleaved mica surfaces and dried overnight in a vacuum desiccator. In some cases, the spread samples were washed with pH-adjusted water to remove any salts that might crystallize during the drying process and potentially complicate the AFM micrograph recording. The surface morphology was analyzed using a FlexAFM microscope system (Nanosurf AG, Liestal, Switzerland) operating in dynamic mode, controlled by Nanosurf control software C3000 version 3.10.4. Micrographs were taken using Tap150GD-G cantilevers (BudgetSensors Ltd., Sofia, Bulgaria) with a nominal tip radius of less than 10 nm. Prescreening was run before data collection to avoid significant height variations in the surface topology. Data collection was performed at different locations within each sample. Images were recorded with a maximum window size of 10 × 10 μm at a resolution of 512 pixels/line. Gwyddion 2.62 software was used to process the AFM data and generate the images.

Substance	amyloid formation / aggregation propensity ([1]; ThT, CD and AFM, 37 °C, acidic and neutral pH, 1 and 5 mg mL–1)	amyloid formation under neutral pH conditions [2]	thioflavin-T response under acidic conditions ([1]; ThT fluorescence, pH 4.2–4.5, 1 and 5 mg mL–1, 37 °C, orbital shaking, 3 days, triplicate)	time to amyloid fibril formation under acidic conditions ([1]; acidic conditions, concentration-dependent, 37 °C)	fibril formation by AFM ([3]; 72 h agitated acidic ThT samples, 1 mg mL–1)	diameter of twisted amyloid fibrils ([3]; AFM, acidic conditions)
Exendin-4 [Ex4]	did not exhibit any evidence of amyloid formation	–	–	–	–	–
glucagon-like peptide-1 [GLP-1]	–	forms amyloid assemblies under neutral pH conditions, albeit in two weeks	exceeded the limit of detection range	≤ 1 days	reveal fibril formation	5–10 nm
